The NTF2 design screens of Basanta et al. (2020)

Assay: protease stability score; higher = more stable; yeast display proteolysis, trypsin and chymotrypsin;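 further: relative to predicted unfolded state with 0 unfolded-like and 1 meaning tenfold more protease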

Sequence	protease stability score
DEDKKRSEEISKTMIEAMETGDEDRLHELLDPHVRMEIRIGDKHIIDHGREMMLHWSRRYPNLQFRLSHIDVQGDKIHAHWLVHIGDKTRDVELELQVVDGQIHSIHLRIR	1.52
DEDKKVAELVMRLWEHTQRTGDPDMMSKLADPNVRVDVNGREIHGRERLFEHLEHMRINHFRLRDREIHVQGDYVKIRIEGELDGDINGREDRHRIELIIVVEKINGRWFMTEVIVIVK	1.37
DEDKKVFETALRILIHYERTGDWELLHRLADPNTRMIQGDKLHIGREKAKEFINKWTEEMRPTDVRIDHVEIINGRIHIEGTTHGDVNGQRHDLEVHILSIKVDGRWRLKEFELK	1.2
DEDKKWVDEMIRLLLEYWRTGDEERIRQLADPNVRTHINGKEIHGMEIHLQYLREFMETFGVDHVELRIHHKDIQGDKIHLHVEIIYTVGDKEHRQEVHFRARKINGKWMIEHVEIK	1.25
DEDKQHAEKVWRLFSKFVNTGDEESLNRLFDPDVKLRVGDKEFHGREEFVKFMSELYRRIDHVHWHFSHIEVVGEYIIIHGHTIFEVGDKKDSRDTRLIMFKVNGRWHIHHIRIE	2.33
DEDKQWIEEFIELHLRELETGDEQRVDENLDPNVKLRINGKEVHGRERISHLLKELLRKVKNLKVELHDIRVQGDFLEIEGTLRIGDKELDLYVIAHKVNGKWIVKERRIH	1.23
DEDKRHADRWVDELRRVMLTGDFDTYVEMLDPHVRIEVGDKVIHGREDLIKFMRERLDRLGYERVEIRIEVSDREKQGDKIELHGTLHLFIGDKEHTHKIRIWIRKVNGQWIAESERVQ	1.71
DEDKTNLDMALRLLKEVTETGDEETLLKMMDPNVRIIINGRDVHGRENAERFATEWSRKVKNATLEVKDFHSQGEKVHLLGHDIFNGREIEFRIIWVKYNGRWFIHEIIFI	1.3
DEDLEESHYAIEYLIRLFETGDWDTVDRFFDPRTRLRVNGKNHHGREEVTEFVEDILKRYDHKQFTFTHVEFQGEKIILHGKLHLDINGVHFEHDFILIIKKIDGRWYVDEIHIS	1.39
DEDLEETRKLIELLTRAFFTGDEDEMKNLADPSVRIIINGREVHGMDEWVRLLEEIRLEDVHSNLRDIRYFNGVVEVDGEFRLDGNINGRRFHHVFDLRLYVIKVNGRWRVKSWRNI	1.83
DEDLERARHAIEELIENWRTGNFREIERLMDPNVRIIIGDKTLHGRESMHRFVEEARLEHFELRHVSIVNGRVHVHGTEDWRIGDKRETREVRIVIHKVDGRWNFEFKIIH	0.983
DEDLKLMLTLTHLWLHAVATGDEDLQTKLADPDVRFIFNGRIIHGMDEWRRFLKELRIKIEDTDHKDSDLYGEKLHIDGHIVIRIHVGEKNERIDTRVHIHVLVINGKLKSVKIETR	2.13
DEDLQFLKNFKEEWIKNLRTGDEDAVQKLADPNVRIDIDGKELHGREVMLEMLHQETNELRLKDVKDKHMTVQGDKIHWDGILIITINGKEIRRRVHIFVQKVDGRWVIESEIHR	0.942
DEDLRMAFEMVRISDHEIDTGDEDSWTKLFDPHVRIRFPGRMLHGREYLHYVLKHARIHYDDSELKDVKFVGNKLLVDVHVRGTFFIDGQNIHTEVKRIHMIEKYNGKWKTTEMEIK	0.469
DEDLSRNFHQFIEALKQNDTDRMKELIDPNARMRYGDKQLHGRENILNYWKKLNDQARVDLDLKSVRNDENHIRYNYKMRVHVNGRPVEDTATAEIRATNGRIVDIYIDFDPEKLRQIES	2.16
DEDMDISKHWAELWMKLEKTGDEEELRKLMDPHARIDFNGVDIHGMEFWLELLKREKDKFKNVKITLEEFRIYGDYVHFHVIIHQGDYHLRIEITIIVVNGRHKELIIRIK	-0.059
DEDMELVLKWVHEFAEMFETGNEHELLRMLDPHVRLEYGEKEIHGREDITRFWEEKIRKLGIKHIRVHIRDARIQGEKLHLDTELKLDYNGKTDHERYIIIIIKINGKWSIKSFQVE	1.55
DEDMKIASHVFHLIMHILHTGDEDSLKELADPDYRWLFNGVSNVGREESVRRLEEIRLEMKDTKTRSAKIYDGRIELHSHVRGNLNVNGVEIEHSVRSRLFVSKVDGKWLVEHIEIG	-0.045
DEDMREAVKIAHRWLQHMTTGDEESIQSLADPHTKILFNGRELHGRHVITHLIREIRIKYTHLEHRDWRVVDGQLHLDFREDLRIEFDGQVRRIEIESHFMIIKINGRWFVHEVHLR	0.636
DEDNEYVEYMHELIARALITGDFELWLKLMDPNTRMQIDGKEFHGREEFRKRLEHLRIDRVRYNVRHFHIIGDKLHVKSEFEIDGQIDGVDRHFSVEIRVLIWKINGRWILRDETTH	1.69
DEDNREIKHAIHLLLTAFLTGNEDWLKELADPNVRILFNGRLFHGREHFLKFLLKFLRDYGIDHNHIQHSHLEIQGNFVHTHLHLEIDVNGRRQEFELRVISEKINGRWHLRELEVHIR	2.43
DEDQEEANHLIDLFIASLNTGDWEIIDHMADPHVKFRSVVNGKREKHIGREEMIRWFEEIEERFGYENFHVRYQRFEVQGEKMNTDITIEWNGRRFRSIILLHVFNGKLKSMEIIDI	1.25
DEDQEEMYKALNHLLTLLKTGDEHVLKRLIDPHVRVEIDGKDRHGMSFLLEIIKEELIRIDHIKDFRIHHVEMVGDKAENHVKLIGEWNGKEFRLRMHVYSWKFDGKWIMKSIKIE	1.75
DEDQEIAEHVAELILELLLTGDEEKFLTLLDPNVRIIVGDKELHGREDWMRLFRHMRVRHVELRKIEVQGEKVHVDSRLDVEFNGRRRNINANWIVLKVNGRWTIRSVELE	2.17
DEDQEIVERFTSLINHLILTGDEEEMKKLLDPNARWIYGDKHIHGRDEFIELLRQIKNVKTRFYIRHIDVINGKLVMHVEIELEFNGKRDHLRQIIISEKVDGRWRAKEFETR	0.66

Sequence	protease stability score
DEDQKAATRFTELLVRLLFTGDEEMWLQLADPRMILDFENHSEHGMKLVVKLLHETIERRGMRIDDMHHTHIEFQGEWVRVHVRVHERIGDKRISVEVEYKSLKVNGRWILHEIHIH	0.372
DEDQKEAEDMAELITKLINTGDEEHWLDRADPHMKVDIDGVESVGREEIERLLHELIRKWGVSKIESRNKHVTIINGRVHFRINIHVNGQEYLLILINDKVDGRWRVQETRVHIT	1.63
DEDQKETEEAIKELEKLSKTGNEHDFLRYFDPNMRVEIGDKEIWGRERALEIFHELGVKHIEVKRVDVQGDKIRMDTLLRVNGQELHTQVVALKINGQWILESYRVE	1.09
DEDQKFAMEVLELLVRAKVTGNEELLEKLLDPHTRVDINGREIHGWEEMLRILHEWRIRDLEFRVRDIHIIDGRLKIDGEERVEGEIDGRNMEIKYRTEVYYEKINGRWIVREMSVR	1.75
DEDREAAEFVVEHLLRALSTGNEEEFLSLLDPTVKWEIDGREYHGRELVSKILHEIRIKTTEFRSTRHEYQGDYLKLDGILHTTVEIDGKRKHLDVNLHMLILKYDGRWLLKSMSVR	1.53
DEDREAIELLVRLLITAHETGDEKILWDLMDPNVRYHQGNFELHGREEIMELESRLRKHLGINHISFRLHDMQHIGDKLILHGSLMFRIGDKEHHTEVDIIVIKINGKWLIESIFIR	1.57
DEDREAMEELVRRTLKASSTGDEELSDQLMDPNTRIEVNGKHLIGREMWIKFLVELRIIFHEVHVHDVRSVGDKVDADVHVIFELRINGKRIDIETRVTFYFRKINGRWLVKSIRFE	1.07
DEDREDARKIFHDFIRALNTGDEDTLAELLDPNTKIHIGEFNLIGMERVREWLQRVDHTHTHIKVRRVDVVNGQIIMDTETEIHIHIGDFTLEIQTRTEMVILKINGRWFIKRVNLI	1.72
DEDREDVKKYIEDLFHHLETGDFKEIEKNFDPNVRIFIDGRTIHGREEMVRWAEEMRYKLHEVRLHEVETQGEKIHIDLEIDIEIRIGDKRRRIRTRVIIFARKINGRWYVHQTDFR	2.71
DEDREEAIKTVEETVELIATGDFEKFEELVDPNVRIDVNGVDVIGREDWRRRVEEIRISMRDSDIKRVRSVNGVMHVDGRIELEVHVNGKTKNVNLRTHWYIVKINGRWLIHSVHFV	1.99
DEDREFAERVMKLLLHSLITGDFRRIHELADPHMRLHQGDFNIIGWDTIYEIMFRLGFRLDDFRIEHMDVVDGRVFLQGRSDGTINGRRTRTNVNIIIEKIDGRWYLRENEVR	1.08
DEDREFLIEMIELFMKFLLTGDWEQFAHLADPNDRFNVNGRDNHGREVWIKEVEEMRIHSLHIEDQDAFNGVIHVDFRVEGHFDGRTHIQKVEIHIRIVNGRVKSVEHHIH	0.575
DEDREHVERIVDILIHSFKTGDESFLENYLDPNARLEVGDKTHHGREEVKKLVIRWWHELGIKHVHVDKKTTIDGRIIIHLTILFNGRRFETELIWVIVDGVINKVDIRIQER	1.45
DEDREHVKWMIEKEIHAWRTGDEDELRKMLDPNVKFEQGDKRIHGREILMERMRKLGADHVEFQLHDIELQGEKVLLFIELRIHVNGRDIRLEIIIYLDKVNGQWHVRHYEIR	0.745
DEDREHVLKVTRLIWRAWMTGDFERISHLIDPNAKIDINGVDLHGREKLRHHLERVDYMHLESEHERRIDIIGDFVRIEFRFTVILIVNGQEVRDTTHVEIRARIVNGRLTEVYVHEH	1.55
DEDREIAERFLRRWSHDTLTGDEDSLRDMVDPNVRLEYGDFTFHGREEWLKFFREIRVEDSHVHHMHVFNGQARIKLDFRVRFNGKELRTKVTLSVDKVDGRWIIRSIHFE	1.64
DEDREIMERFIHILAEVWRTGDEHSLERLFDPNYKTLYDGRDVHGRETHIEILRTLGLERIEVRIKRFRVQGDKLHVNVELDVNGRTTEVEIRWRKIDGRWINHDMEIE	1.39
DEDREMLEELTRRLAHSVETGDEDHHSHLADPNTRETIHINGRTFEHHGWEIWSELLTRLGADHMHLDRVHVVNGRVEIRSRVHVGDKEYKVHILMVVINGRLKEVSVHIH	0.721
DEDREMVEEVIRERLEDLKTGDWKKLADLADPHVRLDVGDKEYHGREEFTKTFTDILRILGHSNIQTDLKHIDFFDGRLDVHQTVHIGDKTIHHQILFHKFDGKWKITEMRITIR	0.928
DEDREQAEEVIRSITEAMQTGDEHLWERMIDPNVRVIIDGRTYHGRLAWDLFRERYDVVHSSDSRIRHLRTYNGRVEVITQLRLDVEINGQRFETSMETHLIVLKFNGKWTVRRMEIH	1.67
DEDREQYREIMSHIWHSIHTGDEETQEDMADPDARFIIGDKTFIGWKQFYEKLREIRIHIDHVHIRHIEVQGDKFRVEFQIHRTIIYNGRNLHETTEAETHLHVVNGRLHSWSFRVR	0.885
DEDRERSEEIAKLILRSWLTGDERLLEELFDPHARVHINGKEFHGMEKFTEFSRHIRMDRVIIHDVKLIGDKMHIEQEIIITFDGRHLHVRSIIIVLKVNGQWVSRSLEIH	1.16
DEDRERSKKEFDTLVKSELTGDEDSYRRMADPDTRLVVGDKEYHGRSAMRYFLRQVDHMEHVIIRRVEYQGDYAHFDITVHGDINGRRDTVHFHLVMYKIDGRWVVHELIIK	1.32
DEDRESARWLFEIHSRVFETGDEDSLHRLFDPNARFDINGREVHGMDLWIHLLKHIRVSVKDMKIRRHKSVNGRLETDYDSTLSFHVGDKTIELEVRVILVSHKVNGRWEIKEEIVH	1.24
DEDRESEEKAIKTWWHMVETGDEKLFKKLADPDTKMVINGVEKHGMETVHEFLNRVDHIRQFDIEDHRFYNGRLELHIRVDVEFNGRRHETERRVIASKVNGRWLLKEVIVH	0.689
